We go through 47 sequences from the NTF2 design screens of Basanta et al. (2020).

The data set is described as follows: protease stability score; higher = more stable; yeast display proteolysis, trypsin and chymotrypsin.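 Further: log10 excess protease needed over predicted unfolded state with 0 meaning unfolded.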
Turning to “DEEKNQELLHHWLKQFSHGNTENLRKNVDKDVRVRVGDKVFNGRETAMRHWSEQVKQVDHVQINHVEVDGDSARADVVYVVNGRERRFEREATIKGDKFKEIEYRTN”, the protease stability score is -0.248.

Regarding “DEKDKARKLNDRVREVMETGDPRKFTELADPNARYIIGDKEFHGTENITKYAKTLRDQVDHVDVKVDHVNVQGNKVVADMKFTAEKNGSRLHYRMIVVAVIQGDNVNAQQVHFK”, the protease stability score stood at 1.18.

The sequence “DDKERDHLRKLMEEGDFTEIAENADPNAKFVIGDKEIHGREQFQTVAKRRQERVDHFDVKRVSVSGNKVRATMVMVVDGEKIHFTVIIEIDNGRVKSVRLQYRDETVKRQIEEAMS” returned a protease stability score of -0.213.

As for “DETAARDVEELLTHVKTNNPENVVKLADPNAKAKIGDQTVKGREELTKQMTKELRHQRMSVEIKDYKVHGNKVVIDAEFTYNHNGRPQKKDVEIYVVFRGEKIEKFVWRTDG”, the protease stability score is 0.627.

Sequence “DEEAIKVQEEIQKQEEKGNEENVEKNMDENVKLRVGDKDLEGRSEVSKDVRRRKDEMRFQYLHMSYHSNGETIRVNIEMSSNHNGRPDTRRFDATFHIHNGKLTEYSKESSQ” gave a protease stability score of 0.161.

Sequence “DEHNVHKVKSMIRAMKTGDEETAQRLADPNVHVKIGDHTLQGRSQLKEYVKKLKTQAKFDFREVDAQDHNGHVKVNVDVVARINGKPVRYEVIIHVTFHNGKIKSAEYQVPQDYLDTLES” displayed a protease stability score of 0.522.

“DDEAKDVVDTFMHAVRFGDPDKVDRNIDKDVRLRYGDTEVHGREDAKTYIEDLRDESRVKINEYSATAHNGKADLDADMSFTRNGQPRKRKMKVTAEVHNGHIKELDVQWRP”: the protease stability score is -0.313.

In the case of “DERLKEQVKRLWEALKENDHDELSKLVDKDAHIVVGDKEVHGRENFMTEMATELSEIRIDYKRLHIDAQGDTADVEVDVEQEHNGQPRRDVKRVEFEYENGRLVKMNVQDNG”, the protease stability score was found to be 0.438.

With “DRDKERKVIEKLMNALQNNDENQIRKLIDPNARLVYGDKELHGREEVVKFLVTLLNQVDRIEYKSYDFHNGHANIDFTLRFNGQNATFTMEIRVKNGRVDHITLDPQQINRMNS”, the protease stability score was determined as 0.885.

The sequence “DEDNVKRAEHFAEALITGNPEEIQKQVDPNAKIKVGEQEVHGMESYAKEVHEENKEMHIEIRHISATAQGDRARLEMRYVINSNGRPQHVVQEYTIKLHNGRAQEIEVKDDG” registered a protease stability score of 0.282.

As to “DDEKQAHRAFEEWERALRTGNEEDLKRLADENVQVQVGDKQLDGREEVVKWMLDQAERVDHIQIDIKHLRIQNGRVEVNIIIQNNHNGQNQTHTMVVVMRNHNGNLYISDVQRR”, the protease stability score amounted to 1.31.

On to “DDDEMHKLVEHAIKAWETGDHKKAMDLIDPNAKVDVGDREIHGREEFSHHVREINKKVDRVDVQDYKVRGNKAQVRMQFNVNGQTVVVNLVFVMSNGRLSRVQIDVTDPDKFRSAQS”, for which the protease stability score was determined as 0.138.

With “DEKEIRKLLETMLKAFVNGNLEVVRKMLKDDGEVEYLDTRRHGPDRAVELVKRLLDLGYEVEYKEVHVKGDTVTANVEANADGKTVRFQVTYQARGRRVDNFKVKYDEDAQKVIKHG”, the protease stability score turned out to be 1.79.

With “DEEELTTLAEQLMDIIEQGDKKRFHQLADPNARMDVGDKRYHGREEMAKNLYDLVERVDTISVDSLSARNGRIKIDMRFKVNGQDVKQILVVRADNGTITRVSIETS”, the protease stability score is 0.849.

In turn, “DEKRMVELMRKIFKTIINGNEDEVKKILPPHGEYHYIDKKFEGKEVAEYIIKLVKKMGAEAKVKEQEVKGDTAKATFQYRKGDKTVQTKAEVKYEGDKMKKARVENTDEVRKVVHQG” came in with a protease stability score of -0.024.

On to “EEEAVRRYERMLRLVQNNNTEELNKQLDPNVEYDYGNHEIHGREQAVREMLKLQRKMRIEIQFDRVRHEGDKAVVKYTVLFDINGRPITNSATLYVKFKNGKIVYASAQMPEDFQRKVSS”, for which the protease stability score amounted to 0.876.

“DEEDVKRAERFQKHYQQGNTEEMRKLLDKNARIEVGDKTLHGRDDAKDKLRKNLDNWRFSMDSVDNKLKNGQVRIDIKYRMVINGRPFSITYKLNVKFENGKVQFMEDRISEDDQRHLEK” displayed a protease stability score of 0.582.

For “DDEVFRRFQEALDIVKKGDPKKFEEMADPNARVKVGDKQLHGRETIAKDIADHMKEMKIEWRVKKLTTNEDHVNVTERWQQKHDGRPEDRERRARVRARGDKLKNHEVETDG”, the protease stability score was 0.118.

In turn, “DDQEIAEQAARDFDTAVQEGDEDQIVRMADPNVQLQIGDERYRGREDLRKWIKDIRRQVDHVDVRVRDLKVQGEHVRARIEVQYTENGKTRRYQFEMTNNIHNGRVRMTQVNEK” gave a protease stability score of 0.948.

In turn, “DEHARDRATQMIEAIHNGDPDTLQELLDEDAHIQIGDKEIHGHDQASRELRRRREEQNVDVRVRDLKVTGERVKIDVEIRVSHNGQPTETKVTIDVEAHNGKIKDLRMRTSQ” returned a protease stability score of 0.15.

Turning to “DEEKVVKVLKQALEAVQKGNQERVRKLGKPDVEVEAVNIREKGPEALRKAAQYVQKLGDKFEYKEEREEGDKVTTKVDVTRGGQTVTYQVDVVAEGGKVKEWVVNFSDTFAERVKKS”, the protease stability score was -0.268.

“DEKTKAKQLADTLKRLAESGDFVRIAQLFDENARLNYGDKTVHGREQAEDQAKKIHDQIDHMELELKSVSVNENSVQISMEVVWHHNGNHHRFEVVVRIDVDENKNRARNADYQ” came in with a protease stability score of 0.921.

“DEDKARRVMEKLFKIVKNGNKDEMKKMGKPNVQYTYVDKRYEGEEAAKKDVEIDKEVGARVQERELEVKGDTVKAVFQYQQGDTTVQTHVEAHYEGDKVKEVKVELTEEVQKIVEQG” displayed a protease stability score of -0.248.

For “DEKNSKLAKDFFEAIESNNPEHAKELADENARYQVGDKQLHGMDEVLKHIKRENERAQVTVSSMTFRISNGRVEVHMDVQRDDNGDPDKKNLVVNFHFRNGKIKEVQDKNDS”, the protease stability score was 0.614.

“DDQHHAERFVEHVLKQLQTGNENDISKMVDENARVEYGDEEITGRESVVKHLIKEARRVDSIDLKVKSVSKEGDKINVTLVAVLDVNGRKDKRQFRVVMAKQGDKTNIISQHEK” yielded a protease stability score of 0.965.

In the case of “DEEDLREIVEEMRTGDEDKFNKNLDENVKVEIGDKTWQGREQAQKMHADVMRRADNVRLKEYEVHNGHVDADLTVEINGRSVEYVMKIEIDNGTMKRIEVTVRDETQEDIQRKVLE”, the protease stability score worked out at 0.309.

The sequence “DPTELLKYAEKLLEALMKGDSELATKMGKPDVEVQTGDQKYKGQDDLRKVVKKIKDYGVENKIDETEKDGGQVKVKIVARIGDREYTFTWVAEAENGKVRKVQLDIPEDLEKDLKHG” returned a protease stability score of 0.739.

As for “DEEVRKAYHDAMKAEEKGDEDRIRELFDPNARVQVGDKTYQGREDISHNLAREQKHARYHIKHVDLQVHNGRLTVKQTYDFQHNGQPNSDRDKATIEADGENIKDVEVKQNP”, the protease stability score is -0.27.

On to “DEKRALEVIKRYAEYLKRGNADEARKMGKEGVEAEFGDTHVHGADQVKEYVKKVKDVGAHVEYKEVEYKGDTVTVKTEVTRGDAKVTFEVKYQAKGDKVVNLEMKFNKEQMKEFKKS”, for which the protease stability score was -0.015.

“DEELKKWFHHWVRAMERGDEQELRNQADPNAKFKIGDKTYHGMDEFARQVVQELRHLRVHIRFKRVRNEPGRLSVDATVVREHNGKPDSYRQKASATYHNGKLTNMTINKDK” gave a protease stability score of 0.735.

As to “DEKEEARELMERLREIIETGNEREAKKLADKDARNNVGDKVLHGREEIVRQLITLYKTADHVDLKFRDYRVDNGKFTMDMKVRFHHNGNTIERRYQMSFDTHNGRLTATRYRNS”, the protease stability score came out at 1.06.

Sequence “DEERQKEALKVHKKGDFDKILDQADEDVQVVIGDKKYHGREEATTALKKILDSIDHLKFESITIQNGRVRVDAILEFNGQQNRVIIVVEVHNGKVKKVEIRVTDPSQEDKLKKRVD” came in with a protease stability score of -0.203.

Sequence “DEEILNKAVEALRVEHQGNRKDLKRMFDPNAKRRVGDKTITGMDNLLKELSDKRRHLNVDVKIDSLHAEGNRVELDVSQRQNTNGQPSEFRAKIVITVKNGRMVDVTIHRTK” showed a protease stability score of -0.016.

“DEDEVRKAKKYIENWEQGNPKDLQEQADENASAQYGDKRIHGMTKIAKFVHKEHEESRVEIQDVQIEAHNGTVHIEIRAIFDHNGKPSQKKVFMSMTMHNGKVKDAELHSDK” yielded a protease stability score of 0.155.

In turn, “DEHAKELAKEFMEAWTKGDPDKAATLADPNVRANVGEFNVHGREDAHRAVDRFRRQMHVELDIRSMRVQGNKVQVDVSVTVTHNGRPHSNRYVVLIIFHNGRIRSVHRRREG” showed a protease stability score of 0.176.

The sequence “DEEAEKVYRKMLHALRTGNEHQLKKLMDPNVHVKVGDKHIHGREDVAQEQRTDRQRWRNDQQLVTFHAEGDQVEFTVEYVIEVNGQPDKDRYKAFFRFDNGKIKEFQVDIDPKELKEQLN” registered a protease stability score of 0.096.

“DEEEKKRQQEEIERLLHTGDHDRFSELMDKDVKMDVGEDRVHGRENVAKHLADEMKRIDHVNVQSVDVKGEKFDFSAQFRVNGQTVQRVIIMVQKNGKWKELSITVTDDDQLKRVES” gave a protease stability score of 0.092.

In turn, “DEEDERKFAEEFHKVLQTNNEEEIRKMFDPNVTAHVGDKRIHGREEVATVIARLARRADHIRLEHVEVENGRITMTLRADVDGRDVQFRVILTVRNGVVQEVQFDYTSEDQFREIQK” yielded a protease stability score of 1.59.

In turn, “DDTQRKRIEEYWTAVKTGDEDRLTELVDEDARVRIGDKEWSGREEIVRRIHDHVRQMRVSLEFKRITVNNGKVQLHAEVEYEHNGKPDTAKVELSMELTNGKFKSNDMQIHK” had a protease stability score of 0.607.

In the case of “DEKDHENVARNLVTAIVQGDPDRFKELLDKNVKFKYGETDVKGKDNAERVMKDFIKEADQVRVQTLSFHGEHIVINMVADVNGEEQRFQIRAKVHNGRVKEMVWHSR”, the protease stability score is 1.5.

Regarding “EKEDLQQIARDMAKAVVSGDKEQMRRLADENARAQIGDKTLHGREKLSELIKRIRDRVDHLRLVDVRQDGDQIQVYVDLVVNGRKRRFTIEAEAHNGHIHSVTFDPRAKEFLDS”, the protease stability score amounted to 1.79.

The sequence “DEEANKVIDRLLKAIKHNNPDQAQHNMDEDVRIRIGDQEINGREQAKKEIRKRNEKMRINIDEVTLNEHPNKVRIQYRYKVDVNGRPVRNSAHMEARVSNGKVKEIDVRVSEDQKRHEER” showed a protease stability score of 0.018.

In turn, “DEEKENRDIQTLMKNMVTGNEQEVMKNADKNVNLVVGDKTYHGREKIREFVRQLRERADHQEIKSVHATNGRAQADMVVNVNGKDIRFTVTMEASNGKAKHIQFDPNFFRKIQS” displayed a protease stability score of -0.079.

“DDKHIQTQAERIAKALQTGDPDKFKNEMRKDVQVDVGDKRLHGREEVAKWMEDKHKRADRITYDSVEASGDKITMTVVIQINGRKKHFQFEATQSNGKIVHARERDQ”: the protease stability score was -0.393.

Sequence “DDEEIKRLVKKAAHAFVDNDPDQFIRLLRDDVRARYGDKEVRGKESIKKQLQHWIHRIDHVEVKSFRAHGNSAEAHIVAIINGRTFDVHMDITFDNGRAHTVVFDVRSEEEFKEAMT” registered a protease stability score of 1.49.

“DEKKVLEVIQKFAEAIKDGNAEQAKKLGKEGIQVHIGDETINGPDQVEKYVKKVKDLGNEVHYKEKEVKGDEVTVHTEVKMGDQTVHFEVHYRAKDDKVEQFHVKFDKDEARRFKTS” displayed a protease stability score of -0.27.

For the sequence “DEQENKEIMRRVKEAFEHNDPDMFKKLFDEDATVEVGDKSFQGRDKIKEAMTQFKNQADRVRVDSVNVRGNKVDATVTADFNGKTASFKLEITWHNGKIKHMRINPEDNKKLQG”, the protease stability score was 0.951.
